Several values for one entry are separate records, joined by “and”; a condition that tells them apart may be missing. Equal values may be shown once. Read-outs that look alike come from different tables or passages of the source.
Tests used:
Assay in all cases: SPR
[1] = molecular target: T1, SARS-CoV-2 spike protein, gamma variant (SPR, FIG. 28 Panel C) (SARS-CoV-2, UniProt P0DTC2 16-1213)
[2] = molecular target: T2, SARS-CoV-2 spike protein, kappa variant (SPR, FIG. 28 Panel D) (SARS-CoV-2, UniProt P0DTC2 16-1213)
[3] = molecular target: T3, SARS-CoV-2 spike protein, beta variant (SPR, FIG. 28 Panel B) (SARS-CoV-2, UniProt P0DTC2 16-1213)
[4] = molecular target: T1, SARS-CoV-2 spike protein, gamma variant …; remark: listed apart in the source
[5] = molecular target: SARS-CoV-2 spike protein, wildtype variant (SPR, FIG. 28 Panel A) (SARS-CoV-2, UniProt P0DTC2 16-1213)
[6] = molecular target: T2, SARS-CoV-2 spike protein, kappa variant …; remark: listed apart in the source
[7] = molecular target: T3, SARS-CoV-2 spike protein, beta variant …; remark: listed apart in the source
[8] = molecular target: SARS-CoV-2 spike protein, Delta variant (SPR) (SARS-CoV-2, UniProt P0DTC2 16-1213)
[9] = molecular target: SARS-CoV-2 S Trimer Alpha B.1.1.7 UK variant
[10] = molecular target: SARS-CoV-2 mutant trimer UK TB918-09

B1: antibody 202-03 (Fc fusion)
chain: EVQLVESGGGLVQPGGSLRLSCAASGFTFSPSWMGWFRQAPGKEREFVATINEYGGRNYADSVKGRFTISADNSKNTAYLQMNSLKPEDTAVYYCARVDRDFDYWGQGTLVTVSS
With B1 as the binder, how does the Kd [1] read?
Its Kd is less than 73 pM.

What about the Kd [2] of the same binder?
The Kd was 272 pM.

What about the Kd [3] of the same binder?
Its Kd is less than 50 pM.

What about the Kd [4] of the same binder?
The Kd was less than 41 pM.

And the Kd [5]?
The Kd was less than 64 pM.

And the Kd [6]?
Its Kd is 105 pM.

And the Kd [7]?
Its Kd is less than 95 pM.

And the Kd [8]?
Its Kd is 312 pM.

B2: T8202-3 (TP37196F) (Fc fusion)
chain: EVQLVESGGGLVQPGGSLRLSCAASGFTFSPSWMGWFRQAPGKEREFVATINEYGGRNYADSVKGRFTISADNSKNTAYLQMNSLKPEDTAVYYCARVDRDFDYWGQGTLVTVSS
For B2, which Kd [9] is on record?
Its Kd is less than 75 pM.

B3: 6-3 (Fc fusion)
chain: EVQLVESGGGLVQPGGSLRLSCAASGFTFSPSWMGWFRQAPGKEREFVATINEYGGRNYADSVKGRFTISADNSKNTAYLQMNSLKPEDTAVYYCARVDRDFDYWGQGTLVTVSS
B3 was tested. Which Kd [10] did it give?
Its Kd is 857 pM and 1300 pM.

B4: antibody 339-031 (Fc fusion)
chain: EVQLVESGGGLVQPGGSLRLSCAASGSTFSINAMGWFRQAPGKEREFVAGITSSGGYTNYADSVKGRFTISADNSKNTAYLQMNSLKPEDTAVYYCAADGVPEYSDYASGPVWGQGTLVTVSS
With B4 as the binder, how does the Kd [1] read?
Its Kd is less than 9.4 pM.

What about the Kd [2] of the same binder?
The Kd was less than 10 pM.

And the Kd [7]?
Its Kd is less than 9.6 pM.

And the Kd [8]?
Its Kd is less than 11 pM.

B5: T8339-031 (Fc fusion)
chain: EVQLVESGGGLVQPGGSLRLSCAASGSTFSINAMGWFRQAPGKEREFVAGITSSGGYTNYADSVKGRFTISADNSKNTAYLQMNSLKPEDTAVYYCAADGVPEYSDYASGPVWGQGTLVTVSS
With B5 as the binder, how does the Kd [9] read?
Its Kd is less than 11 pM.

Reference: patent US20230002478A1 (published 2023)
